# The supplement of paper PMC9170038
# System: MS2 coat protein
# Experiment: apparent KD of MS2 coat protein; designed switch direction (-1 OFF switch, 1 ON switch): -1; higher = weaker reporter binding
# Outline: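 An oligonucleotide input, 200 uM small-molecule ligand, or no input was present during titration of SNAP-549-labelled MS2 coat protein, which was doubled from 0.7 or 1.5 nM to 3 µM. Designed RNA switches had been transcribed on Illumina chips by stalled E. coli RNA polymerase. Apparent KD per design is the median over clusters of curves fitted to normalised cluster fluorescence.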
# [1] = Eterna round: R95, input ligand: microRNA oligo, concentration not stated
# [2] = Eterna round: R95, input ligand: FMN 200 uM
# [3] = Eterna round: R95, input ligand: none
# [4] = input ligand: microRNA oligo, concentration not stated
Sequence,apparent KD of MS2 coat protein (input ligand: FMN 200 uM),apparent KD of MS2 coat protein (input ligand: none),apparent KD of MS2 coat protein [1],apparent KD of MS2 coat protein [2],apparent KD of MS2 coat protein [3],apparent KD of MS2 coat protein [4]
"AUAUAGAUGGUCAGGAUAUGCUAGUGGUAACAGUAGCAGAAGGGACAUGAGGAUCACCCAUGUAGAUCCUGCUC [Brourd's EX4 #13] (Eterna round: R97, puzzle: Brourd's mod of Exclusion 4)",33.5 nM,21.1 nM,–,–,–,–
GGAUCUUGGGUCAGGAUAUGCUGAUAGUUAUGUCAGCAGAAGGGACAUGAGGAUCACCCAUGUGCUCGGUUUUG [Magic-18] (puzzle: Brourd's mod of Exclusion 4),–,–,11.3 nM,–,–,–
"GAUGUGGGUUUUCAGAGUAACAUGAGGAUCACCCAUGUAGAAGUUGAAGGUAUCAAGCGAAUGGCUCGUCAAAUGUG [JR_SV3TOV1_Sub049] (puzzle: Sensor v3, turn-off variant 1)",–,–,182 nM,229 nM,287 nM,–
GCCAGAGCAGGAUAUUCAAUAAUUCACAUGAGGAUCACCCAUGUCCAGCGAAAGCUAGGAGGAGAAGGGCUCUGGC [Fiskers Ex 5 - 4] (puzzle: Exclusion 5),–,–,17.2 nM,15.2 nM,17.8 nM,–
"AAUUUGUCAGGAUAUUGUUAGUUUAGUUGUUUGUAUUAGUUCGAGAAGGGACAUGAGGAUCACCCAUGUGAAAA [Ex4 #70] (Eterna round: R97, puzzle: Exclusion 4)",39.2 nM,53.4 nM,–,–,–,–
"UGUUGUCACGCAGGAUAUGUAUGAGGAUCACCCAUUAAUAAAUUUUAACCACGAGGAUCACCCGUGUAGAAGGGCGGGACAACA [pwkr exNG2 2xF5 1xFMN.14] (Eterna round: R96, puzzle: Exclusion NG 2)",30.6 nM,29.9 nM,–,–,–,20.1 nM
UGAUCUUGAGUCAGGAUAUGCUGGUUUUUUUUUUAGCAGAAGGGACAUGAGGAUCACCCAUGUUCUCACUUUUU [Magic-12] (puzzle: Brourd's mod of Exclusion 4),–,–,16.8 nM,–,–,–
"GGUACUAACACGAAAGUGUUAGUACAAUAAGCUUGUGUUACAUGAGGAUCACCCAUGUCCUCAUAAGCUCGUCUUAU [Mat - Sensor v3 - Turn-off var 2 - D52] (puzzle: Sensor v3, turn-off variant 2)",–,–,38.8 nM,112 nM,126 nM,–
"AAGCAGCGAGGAUAUGCUUGCGCGUGUUCUAGUUGAAAUAAACUUGAGGAUCACCCAAGUAGAAGGCGCAACCG [EX2 #44] (Eterna round: R97, puzzle: Exclusion 2)",437 nM,65.6 nM,–,–,–,–
ACUAGAUGAGGAUAUGCACAUUUUAGUGUUCCUCUAGAUUAACAUGAGGAUCACCCAUGUAGAAGGCGUCAAUU [Exclusion 2 - 12] (puzzle: Exclusion 2),–,–,53.1 nM,–,–,–
AACAUGUGAGGAUAUGUCACAUGGCUCUUCGGAGCAAGAUGACAGAAGGCACAUGAGGAUCACCCAUGUGCAUC [Ex4-3: 27] (puzzle: Exclusion 4),–,–,11.6 nM,–,–,–
GAGAAGGUAGGAUAUACGAAGAAAGAGGGUAGGAAUAAUACACAUGAGGAUCACCCAUGUAGAAGGACCAAGAG [Mat - Exclusion 2 - Mod of my Tesla design - D46] (puzzle: Exclusion 2),–,–,21.4 nM,38.7 nM,24.2 nM,–
GAGAACGUAGGAUAUACAUGAGGAUCACCCAUGUGAGGAAGGAGUAGGAAGAGUGGAAGUAGAAGGACGAAGAG [JR_Exclu3_Sub071] (puzzle: Exclusion 3),–,–,36.3 nM,29.3 nM,43.8 nM,–
"UGGGUACUCCAUAGAAGAGACAUGAGGAUCACCCAUGUAGGGCAAGCUUUUUGCUCGUCUUAGGUUGAGGGAUAGGA [JR_SV3TOV1_Sub015] (puzzle: Sensor v3, turn-off variant 1)",–,–,80.7 nM,166 nM,280 nM,–
"CGGUGUAACAGAGGAUAUCAGCGCAACUGACGAUGAGAAGGCUGACAUGAGGAUCACCCAUGUGAUUUCUCAAUAUUAUACAUC [Prohibition 88 - Jieux - Exclusion NG 1] (Eterna round: R96, puzzle: Exclusion NG 1)",371 nM,100 nM,–,–,–,72.3 nM
"UUUUAACAUGAGGAUCACCCAUGUGAGGAUAUCGUAUUUUUUAUUAAUAUUAAUAAAACGAGAAGGCACAUUUU [JMF 17] (Eterna round: R96, puzzle: Exclusion 1)",96.9 nM,65.5 nM,–,–,–,51.4 nM
"AAAUACAAGUAAAGAUCCUACAUGAGGAUCACCCAUGUGUUCGUCUUAUAAAGUACUAUCACGAAAGUGAUAGUACA [Sensor 3, v1 - 24] (puzzle: Sensor v3, turn-off variant 1)",–,–,131 nM,89 nM,131 nM,–

Sequence,apparent KD of MS2 coat protein (input ligand: FMN 200 uM),apparent KD of MS2 coat protein (input ligand: none),apparent KD of MS2 coat protein [1],apparent KD of MS2 coat protein [2],apparent KD of MS2 coat protein [3],apparent KD of MS2 coat protein [4]
"UUCUUUACACGAGGAUAUCAUACAUGAGGAUCACCCAUGUUACUUUGUCUGUUAUUAUGUAUUAUUGAGAAGGCGUUUUUCUUU [JR_ExcNG2_Sub077] (Eterna round: R96, puzzle: Exclusion NG 2)",–,–,–,–,–,15.8 nM
"CGUGGACAUAACAAGCUUUACAUGAGGAUCACCCAUGUGAUCAUGCUCGUCUUAUGGUCCACGAAUUAAUUAAUUAA [Stov1/6-C1] (Eterna round: R97, puzzle: Sensor, turn-off variant 1)",19.5 nM,19.9 nM,–,–,–,–
"UGAUCUAGCGGAGGAUAUACAUGAGGAUCACCCAUGUAAUGGUGACGUGCGUACAUGUCACCUGUGUAGAAGGCCGCUAGAUCU [JL ENG2 3.57] (Eterna round: R96, puzzle: Exclusion NG 2)",11.3 nM,16 nM,–,–,–,15.6 nM
"GCAUGUCUUAAGGAUAUGCUUAGGCGUGAGCCGGCAGAAGGUAAGACAUGAGGAUCACCCAUGUUUUCCUAAAA [jl-ex6-4.31 ViennaUCT mod] (Eterna round: R97, puzzle: Exclusion 6)",171 nM,24.4 nM,–,–,–,–
"ACAUGAGGAUCACCCAUGUUUGGUUGGUUUUCUCCGGCUGUUGAGGAUAUAGUCCGGUAUCCGCGCUAGAAGGUGAGGGUUGGC [Aenatbe mod 8] (Eterna round: R96, puzzle: Exclusion NG 3)",123 nM,131 nM,–,–,–,123 nM
"UUCCGCCUAGGAUAUUGGAUACUCUACAUGAGGAUCACCCAUGUGAGCAUGAAAGAUAUCCAAGAAGGAGGUAGCC [Eternabot (L2) Solution 68] (Eterna round: R97, puzzle: Exclusion 5)",16.7 nM,14.6 nM,–,–,–,–
CGUUGGCGAGGAUAUACAUGAGGAUCACCCAUGUGAGAGAAAAAAGUGAGGAAGAAAAGUAGAAGGCGCUGACU [salish99_ex3_r3_051] (puzzle: Exclusion 3),–,–,31.7 nM,101 nM,54.3 nM,–
CCUGCACAUGAGGAUCACCCAUGUUAGGAUAUCUCGCCGCCUAAACGAAUGGUGGCCCAGAGAAGGAACAGGGC [Riatbege] (puzzle: Exclusion 1),–,–,26.5 nM,–,–,–
"AAGUACCGUCACGAAAGUGAUGGUACAACAAGCAAAUGUACAUGAGGAUCACCCAUGUCCUCGAUUGCUCGUCUUAU [Sensor 3 - 61] (puzzle: Sensor v3, turn-off variant 2)",–,–,114 nM,77.2 nM,93.6 nM,–
"GAGUUACAUGAGGAUCACCCAUGUGAGGAUAUGAGUCAGUCACGGUGACGUGGCUGACUCAGAAGGCACUAUGG [Mat - Exclusion 1 - JL Mod - D43] (Eterna round: R97, puzzle: Exclusion 1)",52.8 nM,233 nM,–,–,–,–
"GAUUGAUAAGGAUAUACAUGAGGAUCACCCAUGUGCUUCAGCUAGGAGACUAGCAUUGGUAGAAGGUAUUAAUC [Mod of lroppy 12 - Jieux - Exclusion 3] (Eterna round: R97, puzzle: Exclusion 3)",51.8 nM,21.8 nM,–,–,–,–
GGUUGGCGAGGAUAUACAUGAGGAUCACCCAUGUGAGAGAAAAGAGUGAGGAAGAAAAGUAGAAGGCGCUGACG [salish99_ex3_r3_006] (puzzle: Exclusion 3),–,–,69.8 nM,55.9 nM,76.1 nM,–
"AUAAUGUCAGGAUAUCAGAAGUUUAACCUCGGUUAAACUUCUGAGAAGGGACAUGAGGAUCACCCAUGUGAUUA [E4/3-B2] (Eterna round: R97, puzzle: Exclusion 4)",68.4 nM,950 nM,–,–,–,–
"UUAGAAAUGUUAGGAUAUUAAUAUUUUUUUAGUAUGAUCUACAUGAGGAUCACCCAUGUUAAAAUUAAGAAGGAACAUUUUAUU [JR_ExcNG2_Sub098] (Eterna round: R96, puzzle: Exclusion NG 2)",–,–,–,–,–,59.7 nM
ACUAGAUGAGGAUAUGCAUGUUUUCAUGUUCUUCUAGAUUAACAUGAGGAUCACCCAUGUAGAAGGCGUCUUUA [Exclusion 2 - 32] (puzzle: Exclusion 2),–,–,18.9 nM,–,–,–
"CAGUACUGAGGAUAUACAUGAGGAUCACCCAUGUGUUCCAGCUAGGAAACUAGCGAAUGUAGAAGGCAGUACUG [jl-ex3-4.22 salish99 mod] (Eterna round: R97, puzzle: Exclusion 3)",451 nM,355 nM,–,–,–,–
GAAAAGGUAGGAUAUACGAAAAAAAAGGGUAGAAAAAAAGCACAUGAGGAUCACCCAUGUAGAAGGACCAAAAG [salish99_ex2_r3_018] (puzzle: Exclusion 2),–,–,32.5 nM,137 nM,33.5 nM,–
